Results from the Human Domainome abundance scans (Beltran et al. 2025).
± gives the uncertainty stated by the source.

B1: Protein S100-G, residues 1 to 79; numbered along this chain, P02633 (parent)
chain: MSAKKSPEELKGIFEKYAAKEGDPNQLSKEELKLLLQTEFPSLLKGPSTLDELFEELDKNGDGEVSFEEFQVLVKKISQ

Variants of: B1
Experiment: abundance fitness (aPCA) (normalised: wild type 0, dead -1); higher = more abundant; growth selection in yeast, the domain comes from the species named
Conditions: Bos taurus

Variant	abundance fitness
MSADKSPEELKGIFEKYAAKEGDPNQLSKEELKLLLQTEFPSLLKGPSTLDELFEELDKNGDGEVSFEEFQVLVKKISQ	0.092 ± 0.08
MSAGKSPEELKGIFEKYAAKEGDPNQLSKEELKLLLQTEFPSLLKGPSTLDELFEELDKNGDGEVSFEEFQVLVKKISQ	-0.223 ± 0.073
MSAWKSPEELKGIFEKYAAKEGDPNQLSKEELKLLLQTEFPSLLKGPSTLDELFEELDKNGDGEVSFEEFQVLVKKISQ	-0.343 ± 0.087
MSAVKSPEELKGIFEKYAAKEGDPNQLSKEELKLLLQTEFPSLLKGPSTLDELFEELDKNGDGEVSFEEFQVLVKKISQ	-0.145 ± 0.066
MSAHKSPEELKGIFEKYAAKEGDPNQLSKEELKLLLQTEFPSLLKGPSTLDELFEELDKNGDGEVSFEEFQVLVKKISQ	-0.004 ± 0.077
MSAQKSPEELKGIFEKYAAKEGDPNQLSKEELKLLLQTEFPSLLKGPSTLDELFEELDKNGDGEVSFEEFQVLVKKISQ	-0.06 ± 0.082
MSASKSPEELKGIFEKYAAKEGDPNQLSKEELKLLLQTEFPSLLKGPSTLDELFEELDKNGDGEVSFEEFQVLVKKISQ	-0.005 ± 0.061
MSAPKSPEELKGIFEKYAAKEGDPNQLSKEELKLLLQTEFPSLLKGPSTLDELFEELDKNGDGEVSFEEFQVLVKKISQ	-0.097 ± 0.071
MSATKSPEELKGIFEKYAAKEGDPNQLSKEELKLLLQTEFPSLLKGPSTLDELFEELDKNGDGEVSFEEFQVLVKKISQ	0.06 ± 0.068
MSANKSPEELKGIFEKYAAKEGDPNQLSKEELKLLLQTEFPSLLKGPSTLDELFEELDKNGDGEVSFEEFQVLVKKISQ	0.067 ± 0.072
MSAAKSPEELKGIFEKYAAKEGDPNQLSKEELKLLLQTEFPSLLKGPSTLDELFEELDKNGDGEVSFEEFQVLVKKISQ	-0.337 ± 0.068
MSAYKSPEELKGIFEKYAAKEGDPNQLSKEELKLLLQTEFPSLLKGPSTLDELFEELDKNGDGEVSFEEFQVLVKKISQ	0.01 ± 0.07
MSAEKSPEELKGIFEKYAAKEGDPNQLSKEELKLLLQTEFPSLLKGPSTLDELFEELDKNGDGEVSFEEFQVLVKKISQ	-0.154 ± 0.095
MSALKSPEELKGIFEKYAAKEGDPNQLSKEELKLLLQTEFPSLLKGPSTLDELFEELDKNGDGEVSFEEFQVLVKKISQ	0.051 ± 0.061
MSAMKSPEELKGIFEKYAAKEGDPNQLSKEELKLLLQTEFPSLLKGPSTLDELFEELDKNGDGEVSFEEFQVLVKKISQ	-0.023 ± 0.087
MSACKSPEELKGIFEKYAAKEGDPNQLSKEELKLLLQTEFPSLLKGPSTLDELFEELDKNGDGEVSFEEFQVLVKKISQ	-0.222 ± 0.079
MSAFKSPEELKGIFEKYAAKEGDPNQLSKEELKLLLQTEFPSLLKGPSTLDELFEELDKNGDGEVSFEEFQVLVKKISQ	0 ± 0.068
MSAKKSEEELKGIFEKYAAKEGDPNQLSKEELKLLLQTEFPSLLKGPSTLDELFEELDKNGDGEVSFEEFQVLVKKISQ	0.037 ± 0.1
MSAKKSCEELKGIFEKYAAKEGDPNQLSKEELKLLLQTEFPSLLKGPSTLDELFEELDKNGDGEVSFEEFQVLVKKISQ	-0.021 ± 0.082
MSAKKSDEELKGIFEKYAAKEGDPNQLSKEELKLLLQTEFPSLLKGPSTLDELFEELDKNGDGEVSFEEFQVLVKKISQ	-0.119 ± 0.092
MSSKKSPEELKGIFEKYAAKEGDPNQLSKEELKLLLQTEFPSLLKGPSTLDELFEELDKNGDGEVSFEEFQVLVKKISQ	-0.123 ± 0.063
MSNKKSPEELKGIFEKYAAKEGDPNQLSKEELKLLLQTEFPSLLKGPSTLDELFEELDKNGDGEVSFEEFQVLVKKISQ	0.03 ± 0.087
MSPKKSPEELKGIFEKYAAKEGDPNQLSKEELKLLLQTEFPSLLKGPSTLDELFEELDKNGDGEVSFEEFQVLVKKISQ	-0.137 ± 0.073

Variant	abundance fitness
MSEKKSPEELKGIFEKYAAKEGDPNQLSKEELKLLLQTEFPSLLKGPSTLDELFEELDKNGDGEVSFEEFQVLVKKISQ	-0.095 ± 0.094
MSWKKSPEELKGIFEKYAAKEGDPNQLSKEELKLLLQTEFPSLLKGPSTLDELFEELDKNGDGEVSFEEFQVLVKKISQ	-0.178 ± 0.091
MSHKKSPEELKGIFEKYAAKEGDPNQLSKEELKLLLQTEFPSLLKGPSTLDELFEELDKNGDGEVSFEEFQVLVKKISQ	-0.049 ± 0.082
MSVKKSPEELKGIFEKYAAKEGDPNQLSKEELKLLLQTEFPSLLKGPSTLDELFEELDKNGDGEVSFEEFQVLVKKISQ	0.129 ± 0.073
MSQKKSPEELKGIFEKYAAKEGDPNQLSKEELKLLLQTEFPSLLKGPSTLDELFEELDKNGDGEVSFEEFQVLVKKISQ	-0.01 ± 0.081
MSKKKSPEELKGIFEKYAAKEGDPNQLSKEELKLLLQTEFPSLLKGPSTLDELFEELDKNGDGEVSFEEFQVLVKKISQ	-0.133 ± 0.081
MSLKKSPEELKGIFEKYAAKEGDPNQLSKEELKLLLQTEFPSLLKGPSTLDELFEELDKNGDGEVSFEEFQVLVKKISQ	0.007 ± 0.063
MSFKKSPEELKGIFEKYAAKEGDPNQLSKEELKLLLQTEFPSLLKGPSTLDELFEELDKNGDGEVSFEEFQVLVKKISQ	0.103 ± 0.084
MSGKKSPEELKGIFEKYAAKEGDPNQLSKEELKLLLQTEFPSLLKGPSTLDELFEELDKNGDGEVSFEEFQVLVKKISQ	-0.09 ± 0.076
MSTKKSPEELKGIFEKYAAKEGDPNQLSKEELKLLLQTEFPSLLKGPSTLDELFEELDKNGDGEVSFEEFQVLVKKISQ	-0.053 ± 0.07
MSMKKSPEELKGIFEKYAAKEGDPNQLSKEELKLLLQTEFPSLLKGPSTLDELFEELDKNGDGEVSFEEFQVLVKKISQ	0.013 ± 0.081
MSIKKSPEELKGIFEKYAAKEGDPNQLSKEELKLLLQTEFPSLLKGPSTLDELFEELDKNGDGEVSFEEFQVLVKKISQ	0.077 ± 0.081
MSAKKVPEELKGIFEKYAAKEGDPNQLSKEELKLLLQTEFPSLLKGPSTLDELFEELDKNGDGEVSFEEFQVLVKKISQ	-0.203 ± 0.068
MSAKKNPEELKGIFEKYAAKEGDPNQLSKEELKLLLQTEFPSLLKGPSTLDELFEELDKNGDGEVSFEEFQVLVKKISQ	-0.161 ± 0.089
MSAKKGPEELKGIFEKYAAKEGDPNQLSKEELKLLLQTEFPSLLKGPSTLDELFEELDKNGDGEVSFEEFQVLVKKISQ	-0.103 ± 0.072
MSAKKDPEELKGIFEKYAAKEGDPNQLSKEELKLLLQTEFPSLLKGPSTLDELFEELDKNGDGEVSFEEFQVLVKKISQ	-0.071 ± 0.091
MSAKKQPEELKGIFEKYAAKEGDPNQLSKEELKLLLQTEFPSLLKGPSTLDELFEELDKNGDGEVSFEEFQVLVKKISQ	-0.076 ± 0.074
MSAKKCPEELKGIFEKYAAKEGDPNQLSKEELKLLLQTEFPSLLKGPSTLDELFEELDKNGDGEVSFEEFQVLVKKISQ	-0.398 ± 0.089
MSAKKWPEELKGIFEKYAAKEGDPNQLSKEELKLLLQTEFPSLLKGPSTLDELFEELDKNGDGEVSFEEFQVLVKKISQ	-0.372 ± 0.091
MSAKKIPEELKGIFEKYAAKEGDPNQLSKEELKLLLQTEFPSLLKGPSTLDELFEELDKNGDGEVSFEEFQVLVKKISQ	-0.121 ± 0.09
MSAKKFPEELKGIFEKYAAKEGDPNQLSKEELKLLLQTEFPSLLKGPSTLDELFEELDKNGDGEVSFEEFQVLVKKISQ	-0.054 ± 0.076
MSAKKYPEELKGIFEKYAAKEGDPNQLSKEELKLLLQTEFPSLLKGPSTLDELFEELDKNGDGEVSFEEFQVLVKKISQ	-0.264 ± 0.078
MSAKKHPEELKGIFEKYAAKEGDPNQLSKEELKLLLQTEFPSLLKGPSTLDELFEELDKNGDGEVSFEEFQVLVKKISQ	-0.119 ± 0.079

Variant	abundance fitness
MSAKKLPEELKGIFEKYAAKEGDPNQLSKEELKLLLQTEFPSLLKGPSTLDELFEELDKNGDGEVSFEEFQVLVKKISQ	-0.15 ± 0.063
MSAKKRPEELKGIFEKYAAKEGDPNQLSKEELKLLLQTEFPSLLKGPSTLDELFEELDKNGDGEVSFEEFQVLVKKISQ	-0.232 ± 0.067
MSAKKTPEELKGIFEKYAAKEGDPNQLSKEELKLLLQTEFPSLLKGPSTLDELFEELDKNGDGEVSFEEFQVLVKKISQ	-0.03 ± 0.073
MSAKKMPEELKGIFEKYAAKEGDPNQLSKEELKLLLQTEFPSLLKGPSTLDELFEELDKNGDGEVSFEEFQVLVKKISQ	-0.111 ± 0.087
MSAKKAPEELKGIFEKYAAKEGDPNQLSKEELKLLLQTEFPSLLKGPSTLDELFEELDKNGDGEVSFEEFQVLVKKISQ	-0.227 ± 0.07
MSAKKEPEELKGIFEKYAAKEGDPNQLSKEELKLLLQTEFPSLLKGPSTLDELFEELDKNGDGEVSFEEFQVLVKKISQ	-0.159 ± 0.09
MSAKKKPEELKGIFEKYAAKEGDPNQLSKEELKLLLQTEFPSLLKGPSTLDELFEELDKNGDGEVSFEEFQVLVKKISQ	-0.204 ± 0.094
MSAKCSPEELKGIFEKYAAKEGDPNQLSKEELKLLLQTEFPSLLKGPSTLDELFEELDKNGDGEVSFEEFQVLVKKISQ	-0.252 ± 0.082
MSAKMSPEELKGIFEKYAAKEGDPNQLSKEELKLLLQTEFPSLLKGPSTLDELFEELDKNGDGEVSFEEFQVLVKKISQ	-0.017 ± 0.082
MSAKQSPEELKGIFEKYAAKEGDPNQLSKEELKLLLQTEFPSLLKGPSTLDELFEELDKNGDGEVSFEEFQVLVKKISQ	-0.222 ± 0.082
MSAKESPEELKGIFEKYAAKEGDPNQLSKEELKLLLQTEFPSLLKGPSTLDELFEELDKNGDGEVSFEEFQVLVKKISQ	-0.105 ± 0.092
MSAKVSPEELKGIFEKYAAKEGDPNQLSKEELKLLLQTEFPSLLKGPSTLDELFEELDKNGDGEVSFEEFQVLVKKISQ	-0.126 ± 0.067
MSAKISPEELKGIFEKYAAKEGDPNQLSKEELKLLLQTEFPSLLKGPSTLDELFEELDKNGDGEVSFEEFQVLVKKISQ	0.045 ± 0.075
MSAKASPEELKGIFEKYAAKEGDPNQLSKEELKLLLQTEFPSLLKGPSTLDELFEELDKNGDGEVSFEEFQVLVKKISQ	-0.037 ± 0.072
MSAKPSPEELKGIFEKYAAKEGDPNQLSKEELKLLLQTEFPSLLKGPSTLDELFEELDKNGDGEVSFEEFQVLVKKISQ	-0.253 ± 0.068
MSAKNSPEELKGIFEKYAAKEGDPNQLSKEELKLLLQTEFPSLLKGPSTLDELFEELDKNGDGEVSFEEFQVLVKKISQ	-0.063 ± 0.076
MSAKFSPEELKGIFEKYAAKEGDPNQLSKEELKLLLQTEFPSLLKGPSTLDELFEELDKNGDGEVSFEEFQVLVKKISQ	-0.015 ± 0.071
MSAKHSPEELKGIFEKYAAKEGDPNQLSKEELKLLLQTEFPSLLKGPSTLDELFEELDKNGDGEVSFEEFQVLVKKISQ	-0.163 ± 0.074
MSAKRSPEELKGIFEKYAAKEGDPNQLSKEELKLLLQTEFPSLLKGPSTLDELFEELDKNGDGEVSFEEFQVLVKKISQ	-0.154 ± 0.067
MSAKSSPEELKGIFEKYAAKEGDPNQLSKEELKLLLQTEFPSLLKGPSTLDELFEELDKNGDGEVSFEEFQVLVKKISQ	-0.03 ± 0.06
MSAKWSPEELKGIFEKYAAKEGDPNQLSKEELKLLLQTEFPSLLKGPSTLDELFEELDKNGDGEVSFEEFQVLVKKISQ	-0.575 ± 0.088
MSAKYSPEELKGIFEKYAAKEGDPNQLSKEELKLLLQTEFPSLLKGPSTLDELFEELDKNGDGEVSFEEFQVLVKKISQ	0.025 ± 0.071
MSAKTSPEELKGIFEKYAAKEGDPNQLSKEELKLLLQTEFPSLLKGPSTLDELFEELDKNGDGEVSFEEFQVLVKKISQ	0 ± 0.068
